Laboratory results taken from the DeepSol protein solubility set.

Experiment: soluble on expression in E. coli; label from the status in PepcDB or PDB records

| Sequence | soluble on expression in E. coli |
| --- | --- |
| MEIRYAKEEEIESIKDIWSYCFNDTESFMKYYFNDKYKSENTVVALDEGKIISSLQLNQYKLLLNSKVYNTSYVVGVSTLPEGRGAGYMNKVMKFTLNELYKKGQLVSILMPIDYRLYRRFGYEHCYDQIEYTINTDDLKNFKSSGKMIKSNLSQIDDLIQIDRTFLNEVNGNVLKDEHYYENLFKEIQSEDGFLYIHEGNEKDGYIVYFLQEDKMFVRELFYKNIDALKSMLKFIYNHNTQCKIVTISTPTIDKIRFILDNPKDSDIKIKPFMMGRVINVKKFIEDIDIENDINSSFNLLIEDKFIDENNGLFKISIQNKKVSVEQLDKKGAEKPQEDFDIKLDINTLTQLSFSYIDVNEAIFLNDIKDVSEETLETLNCIFSKKNNYINEYI | not soluble |
| MGSDKIHHHHHHMQGRTPLLETLRELECEIRLLTVYARECCGCYEILRRKLDRLSGLIGEDCSRAQWQADSDDPALQALGLRLRDAAVQALCELEKHLCQGVLHEPGEMGRYLGSLLESIRGELDSAGIYAYARVLFVGSGALPTSALVLAREVGAHLCCLDIDEEALGCAREIARCQGLEARMQFSSLPPAELAFSRDATHFLIASLVQQKSAVLAQIRQVMRADAKVLLRHGSGIKGLFNYPVEPAELDGWRVCAERVSQPLYDTLILEKAGR | not soluble |
| MAHHHHHHMRASTPPLYQRQPEGLAPSYNTGLPLAMPDVPTLRIPQHLSATSHAMPPTAAAQGEFVMAATAPRLGSLETSTRATNPAPFITQFPAAQAPNLHGYVSASPRTSGTGTETSASDYFRYAANLMRNTLPPPMTELAALEEEEKSLKREEEELRPQIIELERMREQLEEQTQKVAVELMQMVVLEQQYYVEPIVDYTAQIKNAEVQCVHLASRVEEAKHSLEELQRQHQSYDAVMEEKERLKKETCAVRERFATLENRRRLCMLQSEALFDVESRRGEEAASQAEETENQLMEMRNNEPLLGIKRSRRSSRSMSRGVSFAQKSIVLDTGSDGDDDGYARSTRHTGDTVSGLTQRGSWNSAGAEDEESEQDCDRDDICGISGQSVRYSLNDTKRVQLVVPAV | not soluble |
| MGSDKIHHHHHHMSLSPQASAAPEQGYNFAYLDEQTKRMIRRGLLKAVAIPGYQVPFGGREMPLPYGWGTGGMQVTAAILGADDVLKVIDQGADDTTNAVSIRRFFARTAGVATTERTPEATVIQTRHRIPETALSGEQIMVYQVPIPEPLRFIEPSEAETRTMHALDDYGVMHVKLYEDIATFGHIATSYAYPVTVDERYVMDPSPIPKFDNPKLDMNPALMLFGAGREKRLYAVPPFTRVASLDFEDHPFEVQRWEESCAFCGSHESYLDELIVDDRGGKRFVCSDTDYCTQRRARQEEGEDAQ | not soluble |
| MDQDYERRLLRQIVIQNENTMPRVTEMRRTLTPASSPVSSPSKHGDRFIPSRAGANWSVNFHRINENEKSPSQNRKAKDATSDNGKDGLAYSALLKNELLGAGIEKVQDPQTEDRRLQPSTPEKKGLFTYSLSTKRSSPDDGNDVSPYSLSPVSNKSQKLLRSPRKPTRKISKIPFKVLDAPELQDDFYLNLVDWSSLNVLSVGLGTCVYLWSACTSQVTRLCDLSVEGDSVTSVGWSERGNLVAVGTHKGFVQIWDAAAGKKLSMLEGHTARVGALAWNAEQLSSGSRDRMILQRDIRTPPLQSERRLQGHRQEVCGLKWSTDHQLLASGGNDNKLLVWNHSSLSPVQQYTEHLAAVKAIAWSPHQHGLLASGGGTADRCIRFWNTLTGQPLQCIDTGSQVCNLAWSKHANELVSTHGYSQNQILVWKYPSLTQVAKLTGHSYRVLYLAMSPDGEAIVTGAGDETLRFWNVFSKTRSTKESVSVLNLFTRIR | soluble |
| MADFARSLSITTPEEMIEKAKGETAYLPCKFTLSPEDQGPLDIEWLISPADNQKVDQVIILYSGDKIYDDYYPDLKGRVHFTSNDLKSGDASINVTNLQLSDIGTYQCKVKKAPGVANKKIHLVVLVK | soluble |
| MGSDKIHHHHHHMTAPSPEAWLYMLLQTARELELPWLDLIVDQAEMGARWQSRVGALYPPRMLLQDTPHAEAADEGPVLVRLDANQPQTRLLKLLRQWQGQPRVLALFSGWDYDQLAERLTLCMQASWDKGLQQGVLRFHDPRLFAAVVDALDEPRRQLLLEPAVQWHWLDRDGHARMLDATALQSLPPLEWVHDTLTLEQPHIDALACWHLAETWRQNHLLVPQLYGLDSEEELVRRLAQAHQAADKAKLWSEAERIPVVERMLRENA | not soluble |
| MQKVESIIIGGGPCGLSAAIEQKRKGIDTLIIEKGNVVESIYNYPTHQTFFSSSDKLSIGDVPFIVEESKPRRNQALVYYREVVKHHQLKVNAFEEVLTVKKMNNKFTITTTKDVYECRFLTIATGYYGQHNTLEVEGADLPKVFHYFKEAHPYFDQDVVIIGGKNSAIDAALELEKAGANVTVLYRGGDYSPSIKPWILPNFTALVNHEKIDMEFNANVTQITEDTVTYEVNGESKTIHNDYVFAMIGYHPDYEFLKSVGIQINTNEFGTAPMYNKETYETNIENCYIAGVIAAGNDANTIFIENGKFHGGIIAQNMLAKKQTPLES | soluble |
| MGSDKIHHHHHHMNRIGIIGAMQIEIDLLLEKLAIQEKQTIAGMPFYVGEFMGMEVIVTRCGVGKVNAAACTQTLIHKFDVDAIINTGVAGGLHPDVKVGDVVISTNVTHHDVSKTQMKNLFPFQEEFHASKKLMELARTACNSSSLHIGVHEGRIVSGECFVEDSKLKAKLIDEYAAHCTEMEGAAIGHVAYINEVPFLVIRCISDSADDEAQISYDDFAKTAANYCSEIIVEMLKNISSKTYSSKGGNEMLQAFIFDMDGTLFQTDKILELSLDDTFDHLRSLQLWDTVTPIEKYREIMGVPLPKVWETLLPNHSIEVREQTDAYFLERLIENIKSGKGALYPNVKEIFTYIKENNCSIYIASNGLTEYLRAIVSYYALDQWVTETFSIEQINSLNKSDLVKSILNKYDIKEAAIVGDRLSDINAAKDNGLFAIGCNFDFAQEDELVQADIVIDDLMELKGILPAVQR | not soluble |
| MGSDKIHHHHHHMLSVSSLDGEWNITEVDGQKISTERMPFIGFDVAQKRIYGNSGCNRMMGSFEADSLKPGTLKFGQIGSTRMMCPDMKTEQMVLGALDKVTSFQTVSDKPDVITLCNQDGQPLMTLEKKAAPEVSLSDLSGEWVIELVNGKKIVGTAEVTPFIGFNLDESRIYGNVGCNTINGALMQEDGKPNSLRFDNVATTMMMCPDMETETIVLNALNETKSFSMKDDKVYLLGENGNELLVLKKQ | not soluble |
| MKDTVMMKLNTKESMAQIDGQTIYFKQIGEGKPPLLMLHGFGGSSDGFSDIYPELARDHTIIAVDILGFGRSSKPVDFQYSFPAQVNLYYKLMKKLGYNQFAVLGHSMGGEMSLNLAYLYPDAVTHLILADATGIESFQQKESYEVPPLSTDLQTVTEITKYNKNEVKNSRDDKEHYDQLTKMRERRIAMEADKIKVPTLIIWGRHDKSVSWKNGELYHGLFANSTFHIIEKGYHAPFRQEPIEFMEYVQAFFAKHPQ | not soluble |
| KVSSQSEDSSIKLIQITDTHLFAAEDGSLLSVNTADSFAAVVAAIGEEQVEFDAILATGDISQDHTPESYQRFVRGIQPLKKACYWLPGNHDYKPSMHSVLPTQQIQAVEHVLLGEHWQVVLLDSQVVGVPHGKLSEQQLQLLDNKLTEYPERHTLVLLHHHPLLVGSAWLDQHTLKESERFWDVVAKHSNVKAILCGHVHQDMDRIHLGARVMATPSTCVQFKPNSQDFALDNCSPGWRELTLHADGQVSTQVKRLKQGRFLPDFNSNGY | soluble |
| MTGSQKLILTGRPFLHHQGIINQVSTVTKVIHHELEVAASADDIWTVYSWPGLAKHLPDLLPGAFEKLEIIGDGGVGTILDMTFVPGEFPHEYKEKFILVDNEHRLKKVQMIEGGYLDLGVTYYMDTIHVVPTGKDSCVIKSSTEYHVKPEFVKIVEPLITTGPLAAMADAISKLVLEHKSKSNSDEIEAAIITVHHHHHH | soluble |
| MDKSDMQRTVDSLRSQLNIERTPITVSAAELRRFTESQEDPLVNPIDKKVNPWAEKSKCSML | not soluble |
| MHHHHHHSSGVDLGTENLYFQSMADSEALPSLAGDPVAVEALLRAVFGVVVDEAIQKGTSVSQKVCEWKEPEELKQLLDLELRSQGESQKQILERCRAVIRYSVKTGHPRFFNQLFSGLDPHALAGRIITESLNTSQYTYEIAPVFVLMEEEVLRKLRALVGWSSGDGIFCPGGSISNMYAVNLARYQRYPDCKQRGLRTLPPLALFTSKECHYSIQKGAAFLGLGTDSVRVVKADERGKMVPEDLERQIGMAEAEGAVPFLVSATSGTTVLGAFDPLEAIADVCQRHGLWLHVDAAWGGSVLLSQTHRHLLDGIQRADSVAWNPHKLLAAGLQCSALLLQDTSNLLKRCHGSQASYLFQQDKFYDVALDTGDKVVQCGRRVDCLKLWLMWKAQGDQGLERRIDQAFVLARYLVEEMKKREGFELVMEPEFVNVCFWFVPPSLRGKQESPDYHERLSKVAPVLKERMVKEGSMMIGYQPHGTRGNFFRVVVANSALTCADMDFLLNELERLGQDL | soluble |
| MKKIISLALALALSASAAELKMATTTSTDNTGLLDALKPLYEKESGNTLKWVAVGTGAALKMGEDCNADVLFVHSPKAEKEFMKKGFGVDRTPVMYNDFIIIADKSLASKFKGKNLKESLELIKNEKLTFISRGDKSGTDNKEKSLWKNLGGVPEKQSWYQQSGQGMLASIKIAEEKKGVILTDRGTYIKYEANEKGKPNLVIVNEGDDSLKNFYSVIATNPKHCKNVNYTEASKFIKWVTSDKTLNFIADFKLLNKPLFVIDAKTRKD | not soluble |
| MSLKTQQLLTIGQLAKFSGLHVKALRYYEKIGILNPTAIDKQNGYRYYSYAHIPYVNMIKICANYGLPLKQFTHYILDDGSIDMNAILKEAQLKIEEKERQLQSDERYLRFFSEQINFSQKLDKTTNLHIEQGNKDYFLLPFTGEMLSAKYYEAVRCALAEIEKCQMTFDDRVGCYFKYDDQQVNSFIAIKIKECQEDKTNFLSLCLNHRHIHAQHLTKDRIQPKIKELHQKESINEFLILETFESPYQLSQPHLEMQYVVDNTGEGHHHHHH | soluble |
| MAHHHHHHMYRLVKFLYVNLLASTDLKRKYARAGDWAIVTGATEGIGYAMAMELARRGFNVCVVARTRSKLDAVVAEIEKKGVQGKAVVFDFSTADAQAYKRLFAELELLEVAILVNNVGVNYPYANYFDEADVEEDMKMLKVNCEATLRMTRFIVPRLKAKRSGGIVFLSSISATVPSPLLSAYAGTKSLSLSFGEGLAYELQQFGVDVLTVTPSLVVSRMTQGVSSRKPKETLFMVNAAAMAHQTLNKLGIVTRTAGHINHALLNSCLRILPESLVANKILTMHQAIKRRAERSRTQ | not soluble |
| MVREAKNLRARTKKISLHICRKHAPQSEDFRCVFLRQQVIDRDIEAMAKPYDFYIVWKLSYNHVFTIHPRHTILELPPVYPDTALVPFFIMRFSFFDHMISCEYIFHRKLFVCLHRKNKQKQKSNM | not soluble |
| MHSMKLLVTGGMGFIGSNFIRYILEKHPDWEVINIDKLGYGSNPANLKDLEDDPRYTFVKGDVADYELVKELVRKVDGVVHLAAESHVDRSISSPEIFLHSNVIGTYTLLESIRRENPEVRFVHVSTDEVYGDILKGSFTENDRLMPSSPYSATKAASDMLVLGWTRTYNLNASITRCTNNYGPYQFPEKLIPKTIIRASLGLKIPIYGTGKNVRDWLYVEDHVRAIELVLLKGESREIYNISAGEEKTNLEVVKIILRLMGKGEELIELVEDRPGHDLRYSLDSWKITRDLKWRPKYTFDEGIKKTIDWYLKNEWWWKPLVDERILHPTPWKLKW | soluble |
| MRGSHHHHHHGMASMVVNNPNNWHWVDKNCIGWAKEYFKQKLVGVEAGSVKDKKYAKIKSVSSIEGDCEVNQRKGKVISLFDLKITVLIEGHVDSKDGSALPFEGSINVPEVAFDSEASSYQFDISIFKETSELSEAKPLIRSELLPKLRQIFQQFGKDLLATHGNDIQV | soluble |
